In IntAct's records for PubMed 25910212:

B1: Interleukin-1 alpha (Homo sapiens), P01583 (parent)
chain: MAKVPDMFEDLKNCYSENEEDSSSIDHLSLNQKSFYHVSYGPLHEGCMDQSVSLSISETSKTSKLTFKESMVVVATNGKVLKKRRLSLSQSITDDDLEAIANDSEEEIIKPRSAPFSFLSNVKYNFMRIIKYEFILNDALNQSIIRANDQYLTAAALHNLDEAVKFDMGAYKSSKDDAKITVILRISKTQLYVTAQDEDQPVLLKEMPEIPKTITGSETNLLFFWETHGTKNYFTSVAHPNLFIATKQDYWVCLAGGPPSITDFQILENQA
B2: Polycomb complex protein BMI-1 (Homo sapiens), P35226 (parent)
chain: MHRTTRIKITELNPHLMCVLCGGYFIDATTIIECLHSFCKTCIVRYLETSKYCPICDVQVHKTRPLLNIRSDKTLQDIVYKLVPGLFKNEMKRRRDFYAAHPSADAANGSNEDRGEVADEDKRIITDDEIISLSIEFFDQNRLDRKVNKDKEKSKEEVNDKRYLRCPAAMTVMHLRKFLRSKMDIPNTFQIDVMYEEEPLKDYYTLMDIAYIYTWRRNGPLPLKYRVRPTCKRMKISHQRDGLTNAGELESDSGSDKANSPAGGIPSTSSCLPSPSTPVQSPHPQFPHISSTMNGTSNSPSGNHQSSFANRPRKSSVNGSSATSSG
partner: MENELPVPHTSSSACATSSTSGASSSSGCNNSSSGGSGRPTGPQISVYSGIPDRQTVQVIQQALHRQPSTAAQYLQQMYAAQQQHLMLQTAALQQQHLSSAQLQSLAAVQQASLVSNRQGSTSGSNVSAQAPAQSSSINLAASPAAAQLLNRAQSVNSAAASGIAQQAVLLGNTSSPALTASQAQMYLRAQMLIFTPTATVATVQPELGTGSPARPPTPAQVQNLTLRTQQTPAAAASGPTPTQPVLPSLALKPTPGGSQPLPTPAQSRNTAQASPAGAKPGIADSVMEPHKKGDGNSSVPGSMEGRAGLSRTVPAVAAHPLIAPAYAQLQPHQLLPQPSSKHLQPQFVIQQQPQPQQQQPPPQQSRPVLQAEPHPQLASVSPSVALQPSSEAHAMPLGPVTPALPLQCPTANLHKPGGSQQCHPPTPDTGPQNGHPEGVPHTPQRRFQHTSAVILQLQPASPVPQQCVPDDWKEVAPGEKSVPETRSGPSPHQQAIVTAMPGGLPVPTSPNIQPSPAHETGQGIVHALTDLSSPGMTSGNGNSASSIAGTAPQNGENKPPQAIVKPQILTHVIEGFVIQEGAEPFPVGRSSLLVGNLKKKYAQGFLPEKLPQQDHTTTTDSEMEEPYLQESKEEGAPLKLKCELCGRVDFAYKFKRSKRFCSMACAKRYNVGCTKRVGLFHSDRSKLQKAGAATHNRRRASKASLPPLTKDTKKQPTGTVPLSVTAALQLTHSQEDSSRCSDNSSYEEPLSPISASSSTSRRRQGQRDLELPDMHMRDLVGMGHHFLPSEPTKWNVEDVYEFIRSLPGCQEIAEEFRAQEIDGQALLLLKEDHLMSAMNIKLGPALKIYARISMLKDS
B3: EF-hand domain-containing protein 1 (Homo sapiens), Q5JVL4 (parent)
chain: MVSNPVHGLPFLPGTSFKDSTKTAFHRSQTLSYRNGYAIVRRPTVGIGGDRLQFNQLSQAELDELASKAPVLTYGQPKQAPPADFIPAHVAFDKKVLKFDAYFQEDVPMSTEEQYRIRQVNIYYYLEDDSMSVIEPVVENSGILQGKLIKRQRLAKNDRGDHYHWKDLNRGINITIYGKTFRVVDCDQFTQVFLESQGIELNPPEKMALDPYTELRKQPLRKYVTPSDFDQLKQFLTFDKQVLRFYAIWDDTDSMYGECRTYIIHYYLMDDTVEIREVHERNDGRDPFPLLMNRQRVPKVLVENAKNFPQCVLEISDQEVLEWYTAKDFIVGKSLTILGRTFFIYDCDPFTRRYYKEKFGITDLPRIDVSKREPPPVKQELPPYNGFGLVEDSAQNCFALIPKAPKKDVIKMLVNDNKVLRYLAVLESPIPEDKDRRFVFSYFLATDMISIFEPPVRNSGIIGGKYLGRTKVVKPYSTVDNPVYYGPSDFFIGAVIEVFGHRFIILDTDEYVLKYMESNAAQYSPEALASIQNHVRKREAPAPEAESKQTEKDPGVQELEALIDTIQKQLKDHSCKDNIREAFQIYDKEASGYVDRDMFFKICESLNVPVDDSLVKELIRMCSHGEGKINYYNFVRAFSN
partner: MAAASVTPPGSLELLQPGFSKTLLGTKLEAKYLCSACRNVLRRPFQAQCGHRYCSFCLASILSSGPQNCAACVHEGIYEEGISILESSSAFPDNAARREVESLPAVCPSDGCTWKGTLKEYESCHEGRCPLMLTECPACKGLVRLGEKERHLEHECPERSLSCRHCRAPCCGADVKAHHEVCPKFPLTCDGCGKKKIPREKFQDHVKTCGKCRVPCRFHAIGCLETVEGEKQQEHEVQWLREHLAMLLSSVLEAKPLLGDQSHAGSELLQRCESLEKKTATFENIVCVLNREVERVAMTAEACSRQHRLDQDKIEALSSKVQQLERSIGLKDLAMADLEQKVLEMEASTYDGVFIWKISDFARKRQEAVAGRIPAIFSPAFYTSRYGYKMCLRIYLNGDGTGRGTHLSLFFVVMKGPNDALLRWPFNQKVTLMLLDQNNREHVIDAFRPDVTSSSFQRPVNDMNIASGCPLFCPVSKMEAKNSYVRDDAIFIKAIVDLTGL
B4: ATP synthase mitochondrial F1 complex assembly factor 2 (Homo sapiens), Q8N5M1 (parent)
chain: MWRSCLRLRDGGRRLLNRPAGGPSASMSPGPTIPSPARAYAPPTERKRFYQNVSITQGEGGFEINLDHRKLKTPQAKLFTVPSEALAIAVATEWDSQQDTIKYYTMHLTTLCNTSLDNPTQRNKDQLIRAAVKFLDTDTICYRVEEPETLVELQRNEWDPIIEWAEKRYGVEISSSTSIMGPSIPAKTREVLVSHLASYNTWALQGIEFVAAQLKSMVLTLGLIDLRLTVEQAVLLSRLEEEYQIQKWGNIEWAHDYELQELRARTAAGTLFIHLCSESTTVKHKLLKE
partner: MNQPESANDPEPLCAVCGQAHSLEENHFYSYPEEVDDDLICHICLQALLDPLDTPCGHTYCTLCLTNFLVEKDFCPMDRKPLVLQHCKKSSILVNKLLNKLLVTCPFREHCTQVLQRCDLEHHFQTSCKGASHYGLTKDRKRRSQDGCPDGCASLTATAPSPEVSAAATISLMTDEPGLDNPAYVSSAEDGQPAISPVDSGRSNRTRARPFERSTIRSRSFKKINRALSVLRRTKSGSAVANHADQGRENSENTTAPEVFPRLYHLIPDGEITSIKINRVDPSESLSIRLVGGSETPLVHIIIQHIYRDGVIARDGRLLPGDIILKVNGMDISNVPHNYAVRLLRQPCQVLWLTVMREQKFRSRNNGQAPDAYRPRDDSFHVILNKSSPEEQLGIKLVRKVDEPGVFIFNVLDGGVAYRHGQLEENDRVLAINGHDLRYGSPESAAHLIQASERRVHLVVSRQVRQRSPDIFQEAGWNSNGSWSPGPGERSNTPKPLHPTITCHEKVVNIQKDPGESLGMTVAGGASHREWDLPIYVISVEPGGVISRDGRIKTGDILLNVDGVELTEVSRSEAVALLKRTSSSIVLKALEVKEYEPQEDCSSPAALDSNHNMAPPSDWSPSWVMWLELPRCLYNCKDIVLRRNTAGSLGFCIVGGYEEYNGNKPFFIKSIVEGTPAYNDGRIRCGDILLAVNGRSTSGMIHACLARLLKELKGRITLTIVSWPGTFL
B5: LHFPL tetraspan subfamily member 5 protein (Homo sapiens), Q8TAF8 (parent)
chain: MVKLLPAQEAAKIYHTNYVRNSRAVGVMWGTLTICFSVLVMALFIQPYWIGDSVNTPQAGYFGLFSYCVGNVLSSELICKGGPLDFSSIPSRAFKTAMFFVALGMFLIIGSIICFSLFFICNTATVYKICAWMQLAAATGLMIGCLVYPDGWDSSEVRRMCGEQTGKYTLGHCTIRWAFMLAILSIGDALILSFLAFVLGYRQDKLLPDDYKADGTEEV
partner: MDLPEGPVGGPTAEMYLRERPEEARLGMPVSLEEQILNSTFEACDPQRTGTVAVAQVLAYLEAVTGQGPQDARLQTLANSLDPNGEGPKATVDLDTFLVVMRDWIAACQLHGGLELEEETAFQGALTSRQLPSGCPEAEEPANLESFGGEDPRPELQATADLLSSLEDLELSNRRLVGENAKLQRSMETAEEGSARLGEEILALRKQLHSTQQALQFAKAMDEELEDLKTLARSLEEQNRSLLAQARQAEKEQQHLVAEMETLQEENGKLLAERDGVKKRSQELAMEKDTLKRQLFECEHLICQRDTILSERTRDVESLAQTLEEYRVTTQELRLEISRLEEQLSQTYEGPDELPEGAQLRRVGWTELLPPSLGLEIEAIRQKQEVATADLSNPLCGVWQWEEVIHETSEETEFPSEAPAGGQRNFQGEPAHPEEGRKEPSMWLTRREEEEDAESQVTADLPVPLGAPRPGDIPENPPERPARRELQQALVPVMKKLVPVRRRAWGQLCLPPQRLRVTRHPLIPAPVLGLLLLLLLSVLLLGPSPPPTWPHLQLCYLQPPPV
B6: U4/U6 small nuclear ribonucleoprotein Prp31 (Homo sapiens), Q8WWY3 (parent)
chain: MSLADELLADLEEAAEEEEGGSYGEEEEEPAIEDVQEETQLDLSGDSVKTIAKLWDSKMFAEIMMKIEEYISKQAKASEVMGPVEAAPEYRVIVDANNLTVEIENELNIIHKFIRDKYSKRFPELESLVPNALDYIRTVKELGNSLDKCKNNENLQQILTNATIMVVSVTASTTQGQQLSEEELERLEEACDMALELNASKHRIYEYVESRMSFIAPNLSIIIGASTAAKIMGVAGGLTNLSKMPACNIMLLGAQRKTLSGFSSTSVLPHTGYIYHSDIVQSLPPDLRRKAARLVAAKCTLAARVDSFHESTEGKVGYELKDEIERKFDKWQEPPPVKQVKPLPAPLDGQRKKRGGRRYRKMKERLGLTEIRKQANRMSFGEIEEDAYQEDLGFSLGHLGKSGSGRVRQTQVNEATKARISKTLQRTLQKQSVVYGGKSTIRDRSSGTASSVAFTPLQGLEIVNPQAAEKKVAEANQKYFSSMAEFLKVKGEKSGLMST
partner: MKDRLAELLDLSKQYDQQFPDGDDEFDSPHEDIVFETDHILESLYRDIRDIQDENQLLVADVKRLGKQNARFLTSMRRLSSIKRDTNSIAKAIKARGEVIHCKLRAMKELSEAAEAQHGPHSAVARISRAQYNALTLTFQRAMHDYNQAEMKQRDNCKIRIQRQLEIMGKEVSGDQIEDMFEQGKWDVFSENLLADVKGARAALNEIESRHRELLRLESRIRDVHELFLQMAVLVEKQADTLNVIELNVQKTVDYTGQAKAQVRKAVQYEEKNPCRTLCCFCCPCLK
B7: Beta-crystallin A4 (Homo sapiens), P53673 (parent)
chain: MTLQCTKSAGPWKMVVWDEDGFQGRRHEFTAECPSVLELGFETVRSLKVLSGAWVGFEHAGFQGQQYILERGEYPSWDAWGGNTAYPAERLTSFRPAACANHRDSRLTIFEQENFLGKKGELSDDYPSLQAMGWEGNEVGSFHVHSGAWVCSQFPGYRGFQYVLECDHHSGDYKHFREWGSHAPTFQVQSIRRIQQ
partner: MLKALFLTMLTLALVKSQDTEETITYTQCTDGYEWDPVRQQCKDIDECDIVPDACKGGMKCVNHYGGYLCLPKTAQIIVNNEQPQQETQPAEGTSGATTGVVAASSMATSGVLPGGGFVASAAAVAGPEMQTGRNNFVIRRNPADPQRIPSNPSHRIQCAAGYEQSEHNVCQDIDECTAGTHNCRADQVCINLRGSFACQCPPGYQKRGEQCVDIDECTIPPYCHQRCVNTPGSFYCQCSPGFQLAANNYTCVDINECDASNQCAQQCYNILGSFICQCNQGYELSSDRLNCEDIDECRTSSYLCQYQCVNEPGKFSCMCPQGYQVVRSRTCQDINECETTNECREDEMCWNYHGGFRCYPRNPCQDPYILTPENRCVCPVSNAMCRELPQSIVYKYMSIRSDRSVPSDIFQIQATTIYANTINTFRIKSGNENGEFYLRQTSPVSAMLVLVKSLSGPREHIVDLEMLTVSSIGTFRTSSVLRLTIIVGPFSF

Variants of: B1
Conditions: with ima7_human KPNA6, O60684

effect of a mutation on the interaction	Variant
with no effect	S113A
with no effect	A114S

Variants of: B1
Conditions: with meox2_human MEOX2, P50222
meox2_human MEOX2, P50222, sequence (P50222 whole entry): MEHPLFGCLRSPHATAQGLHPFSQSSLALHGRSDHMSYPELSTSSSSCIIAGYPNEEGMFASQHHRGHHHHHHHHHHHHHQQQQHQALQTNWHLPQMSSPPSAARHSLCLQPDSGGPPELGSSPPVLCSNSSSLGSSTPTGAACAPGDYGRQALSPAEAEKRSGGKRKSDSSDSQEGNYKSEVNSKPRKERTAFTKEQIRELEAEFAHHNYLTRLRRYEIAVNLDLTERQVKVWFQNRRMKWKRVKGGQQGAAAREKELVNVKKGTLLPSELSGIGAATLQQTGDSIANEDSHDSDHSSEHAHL

effect of a mutation on the interaction	Variant
with no effect	S113A
with no effect	A114S

Variants of: B2
Conditions: with PHC2, Q8IXK0-5

effect of a mutation on the interaction	Variant
disrupting interaction strength	C18Y

Variants of: B3
Conditions: with traf2_human TRAF2, Q12933

effect of a mutation on the interaction	Variant
with no effect	T508R

Variants of: B4
Conditions: with lnx1_human LNX1, Q8TBB1

effect of a mutation on the interaction	Variant
disrupting interaction strength	W94R

Variants of: B5
Conditions: with kash5_human KASH5, Q8N6L0

effect of a mutation on the interaction	Variant
with no effect	T165M
with no effect	Y127C

Variants of: B6
Conditions: with stx11_human STX11, O75558

effect of a mutation on the interaction	Variant
with no effect	L107V

Variants of: B7
Conditions: with fbln3_human EFEMP1, Q12805

effect of a mutation on the interaction	Variant
disrupting interaction strength	F94S
